# B1: Sorting nexin-20 (Homo sapiens), Q7Z614 (parent)
# chain: MASPEHPGSPGCMGPITQCTARTQQEAPATGPDLPHPGPDGHLDTHSGLSSNSSMTTRELQQYWQNQKCRWKHVKLLFEIASARIEERKVSKFVVYQIIVIQTGSFDNNKAVLERRYSDFAKLQKALLKTFREEIEDVEFPRKHLTGNFAEEMICERRRALQEYLGLLYAIRCVRRSREFLDFLTRPELREAFGCLRAGQYPRALELLLRVLPLQEKLTAHCPAAAVPALCAVLLCHRDLDRPAEAFAAGERALQRLQAREGHRYYAPLLDAMVRLAYALGKDFVTLQERLEESQLRRPTPRGITLKELTVREYLH
# partner: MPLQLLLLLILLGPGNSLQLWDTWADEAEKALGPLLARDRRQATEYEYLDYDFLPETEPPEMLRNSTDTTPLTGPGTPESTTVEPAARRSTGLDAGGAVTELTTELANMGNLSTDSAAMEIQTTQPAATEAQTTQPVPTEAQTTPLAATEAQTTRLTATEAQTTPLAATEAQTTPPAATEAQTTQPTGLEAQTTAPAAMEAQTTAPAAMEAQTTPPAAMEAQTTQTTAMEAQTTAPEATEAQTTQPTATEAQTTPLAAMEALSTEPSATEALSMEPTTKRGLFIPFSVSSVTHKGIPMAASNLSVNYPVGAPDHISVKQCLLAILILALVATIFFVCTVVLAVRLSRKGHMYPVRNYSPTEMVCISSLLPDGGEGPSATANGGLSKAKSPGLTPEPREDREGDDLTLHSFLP
# Variants of: B1
# Details: with selpl_human SELPLG
row,Variant,effect of a mutation on the interaction
1,MASPEHPGSPGCMGPITQCTARTQQEAPATGPDLPHPGPDGHLDTHSGLSSNSSMTTRELQQYWQNQKCRWKHVKLLFEIASARIEERKVSKFVVYQIIVIQTGSFDNNKAVLERQYSDFAKLQKALLKTFREEIEDVEFPRKHLTGNFAEEMICERRRALQEYLGLLYAIRCVRRSREFLDFLTRPELREAFGCLRAGQYPRALELLLRVLPLQEKLTAHCPAAAVPALCAVLLCHRDLDRPAEAFAAGERALQRLQAREGHRYYAPLLDAMVRLAYALGKDFVTLQERLEESQLRRPTPRGITLKELTVREYLH [R116Q],disrupting interaction
